Where a chain is given by its changes, count along the chain named. Where two headings read alike, the source gives them in different places.
B1: VH0/VK0 chimeric antibody (hIgG1 backbone) (antibody, V domains shown)
VH: QVQLQQSGAELVRPGTSVKVSCKASGYAFSNYFIEWVKQRPGQGLEWIGLNIPGSGGSNYAEKFKGKATLTADKSSSTAYMQLSSLTSEDSAVYFCARRRLPPDWYFDVWGTGTTVTVSS
VL: DVVMTQTPLSLPVSLGDQASISCRSSQSLVHSDGNTYLHWYLQKPGQSPKLLIYKVSNRFSGVPDRFSGSGSGTDFTLKISRVEAEDLGVYFCSQSTHVPWTFGGGTKLEIK
notes: Mouse variable regions on human IgG1 backbone, expressed in CHO cells; also called chimeric anti-PDL2 lead mAb VH0/VK0
B2: VH4/VK2 (antibody, V domains shown)
VH: QVQLVQSGAEVKKPGSSVKVSCKASGYAFSNYFIEWVKQPPGKGLEWIGLNIPGSGGSNYAEKFKGRVTITADKSTSTAYMELSSLRSEDTAVYYCARRRLPPDWYFDVWGQGTTVTVSS
VL: B1 VL with T7S, S14T, D17Q, Q18P, L42Q, S48P, L88V, F92Y, L109V
notes: hIgG1 backbone, CHO expressed
B3: VH2/VK1 (antibody, V domains shown)
VH: B2 VH with V68A, T91S, Y95F
VL: B1 VL with T7S, S14T, D17Q, Q18P, L42Q, S48P, L88V, L109V
notes: hIgG1 backbone, CHO expressed
B4: VH2/VK3 (antibody, V domains shown)
VH: B2 VH with V68A, T91S, Y95F
VL: B1 VL with T7S, S14T, D17Q, Q18P, D33G, L42Q, S48P, L88V, L109V
notes: hIgG1 backbone, CHO expressed
B5: VH4/VK3 (antibody, V domains shown)
VH: B2 VH
VL: B1 VL with T7S, S14T, D17Q, Q18P, D33G, L42Q, S48P, L88V, L109V
notes: hIgG1 backbone, CHO expressed
B6: VH1/VK1 (antibody, V domains shown)
VH: B2 VH with V11L, V68A, R87T, T91S, Y95F
VL: B1 VL with T7S, S14T, D17Q, Q18P, L42Q, S48P, L88V, L109V
notes: hIgG1 backbone, CHO expressed
B7: VH3/VK1 (antibody, V domains shown)
VH: B2 VH with T91S, Y95F
VL: B1 VL with T7S, S14T, D17Q, Q18P, L42Q, S48P, L88V, L109V
notes: hIgG1 backbone, CHO expressed
B8: VH7/VK1 (antibody, V domains shown)
VH: B2 VH with V11L, V68A
VL: B1 VL with T7S, S14T, D17Q, Q18P, L42Q, S48P, L88V, L109V
notes: hIgG1 backbone, CHO expressed
B9: VH7/VK2 (antibody, V domains shown)
VH: B2 VH with V11L, V68A
VL: B1 VL with T7S, S14T, D17Q, Q18P, L42Q, S48P, L88V, F92Y, L109V
notes: hIgG1 backbone, CHO expressed
B10: VH4/VK1 (antibody, V domains shown)
VH: B2 VH
VL: B1 VL with T7S, S14T, D17Q, Q18P, L42Q, S48P, L88V, L109V
notes: hIgG1 backbone, CHO expressed
B11: VH2/VK2 (antibody, V domains shown)
VH: B2 VH with V68A, T91S, Y95F
VL: B1 VL with T7S, S14T, D17Q, Q18P, L42Q, S48P, L88V, F92Y, L109V
notes: hIgG1 backbone, CHO expressed
B12: VH8/VK1 (antibody, V domains shown)
VH: B2 VH with V68A
VL: B1 VL with T7S, S14T, D17Q, Q18P, L42Q, S48P, L88V, L109V
notes: hIgG1 backbone, CHO expressed
B13: VH6/VK1 (antibody, V domains shown)
VH: B2 VH with A28S
VL: B1 VL with T7S, S14T, D17Q, Q18P, L42Q, S48P, L88V, L109V
notes: hIgG1 backbone, CHO expressed
B14: VH3/VK2 (antibody, V domains shown)
VH: B2 VH with T91S, Y95F
VL: B1 VL with T7S, S14T, D17Q, Q18P, L42Q, S48P, L88V, F92Y, L109V
notes: hIgG1 backbone, CHO expressed
B15: VH8/VK3 (antibody, V domains shown)
VH: B2 VH with V68A
VL: B1 VL with T7S, S14T, D17Q, Q18P, D33G, L42Q, S48P, L88V, L109V
notes: hIgG1 backbone, CHO expressed
B16: VH6/VK3 (antibody, V domains shown)
VH: B2 VH with A28S
VL: B1 VL with T7S, S14T, D17Q, Q18P, D33G, L42Q, S48P, L88V, L109V
notes: hIgG1 backbone, CHO expressed
B17: VH7/VK3 (antibody, V domains shown)
VH: B2 VH with V11L, V68A
VL: B1 VL with T7S, S14T, D17Q, Q18P, D33G, L42Q, S48P, L88V, L109V
notes: hIgG1 backbone, CHO expressed
B18: VH1/VK3 (antibody, V domains shown)
VH: B2 VH with V11L, V68A, R87T, T91S, Y95F
VL: B1 VL with T7S, S14T, D17Q, Q18P, D33G, L42Q, S48P, L88V, L109V
notes: hIgG1 backbone, CHO expressed
B19: VH6/VK2 (antibody, V domains shown)
VH: B2 VH with A28S
VL: B1 VL with T7S, S14T, D17Q, Q18P, L42Q, S48P, L88V, F92Y, L109V
notes: hIgG1 backbone, CHO expressed
B20: VH1/VK2 (antibody, V domains shown)
VH: B2 VH with V11L, V68A, R87T, T91S, Y95F
VL: B1 VL with T7S, S14T, D17Q, Q18P, L42Q, S48P, L88V, F92Y, L109V
notes: hIgG1 backbone, CHO expressed
B21: VH3/VK3 (antibody, V domains shown)
VH: B2 VH with T91S, Y95F
VL: B1 VL with T7S, S14T, D17Q, Q18P, D33G, L42Q, S48P, L88V, L109V
notes: hIgG1 backbone, CHO expressed
B22: VH0/VK1 (antibody, V domains shown)
VH: B1 VH
VL: B1 VL with T7S, S14T, D17Q, Q18P, L42Q, S48P, L88V, L109V
notes: hIgG1 backbone, CHO expressed
B23: VH1/VK0 (antibody, V domains shown)
VH: B2 VH with V11L, V68A, R87T, T91S, Y95F
VL: B1 VL
notes: hIgG1 backbone, CHO expressed

Columns and labels:
[1] = molecular target: T1, human PD-L2 on CHO-K1 cells of the Promega PD-1/PD-L2 blockade bioassay (human, UniProt Q9BQ51 20-273); assay: cell-based or functional assay
T1 sequence (looked up): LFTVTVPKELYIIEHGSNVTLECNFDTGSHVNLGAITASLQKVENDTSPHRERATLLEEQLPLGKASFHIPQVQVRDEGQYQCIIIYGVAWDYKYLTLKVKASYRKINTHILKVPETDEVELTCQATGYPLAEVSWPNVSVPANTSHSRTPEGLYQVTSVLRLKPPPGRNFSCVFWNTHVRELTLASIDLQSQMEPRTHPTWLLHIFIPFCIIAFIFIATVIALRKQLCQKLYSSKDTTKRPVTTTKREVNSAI

[2] = molecular target: T2, recombinant human PD-L2 (human PD-L2 antigen) (human, UniProt Q9BQ51 20-219, limits assumed); assay: SPR (Biacore 8K), single cycle kinetics, antibody in culture supernatant, human PD-L2 antigen
T2 construct: The Biacore analyte and the ELISA antigen are only called human PD-L2 antigen / recombinant hPD-L2; Whole entry named; also called hPD-L2; recombinant hPD-L2
T2 sequence (looked up): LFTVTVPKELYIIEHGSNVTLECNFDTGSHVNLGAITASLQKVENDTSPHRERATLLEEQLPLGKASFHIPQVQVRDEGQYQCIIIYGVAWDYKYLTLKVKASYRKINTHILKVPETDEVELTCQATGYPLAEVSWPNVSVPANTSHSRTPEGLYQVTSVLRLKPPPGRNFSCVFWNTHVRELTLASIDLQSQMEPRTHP
Source text: Table 2: Single cycle kinetic parameters of chimeric (VH0/VK0) and humanized variants (tested as cell culture supernatants) binding to human PD-L2 antigen as determined using the Biacore 8K. As used herein, the term “KD” is intended to refer to the dissociation equilibrium constant of a particular antibody-antigen interaction, ka is the binding rate constant and kd is the dissociation rate constant. The binding affinity of antibodies of the disclosed invention may be measured or determined by standard antibody-antigen assays. The relative KD was calculated by dividing the KD of the humanized variant by that of the VH0/VK0 assayed in the same experiment.

[3] = molecular target: T3, mouse PD-L2 on CHO-K1 cells over-expressing mPD-L2 GFP (mouse, UniProt Q9WUL5 20-247); assay: flow cytometry on CHO-K1 cells overexpressing mPD-L2, mean fluorescence
T3 construct: whole, on cells; also called cellular mPD-L2; not shown: GFP of the mPD-L2 GFP construct
T3 sequence (looked up): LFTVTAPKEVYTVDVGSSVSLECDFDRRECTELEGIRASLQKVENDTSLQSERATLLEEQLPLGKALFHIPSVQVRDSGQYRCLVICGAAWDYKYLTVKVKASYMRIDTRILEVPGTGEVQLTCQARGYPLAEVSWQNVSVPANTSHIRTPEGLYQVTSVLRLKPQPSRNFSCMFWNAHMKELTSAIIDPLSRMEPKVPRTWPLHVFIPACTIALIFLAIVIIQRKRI
Description: CHO-K1 cells over-expressing either hPDL2-GFP or mPD-L2 GFP were detached, washed in phosphate buffered saline (PBS) and adjusted to a cell concentration of around 1 million cells in cytometry buffer (CB, PBS containing 1% […]). Around 80,000 cells were then distributed into a round-bottom 96 well plate and the plate was centrifuged for 3 minutes at 400 g at 4° C. and supernatant discarded. Appropriate antibody concentrations in 50 microliter volumes were added to the wells and incubated for 30 minutes at 6-8° C. The plate was washed 3 times with PBS and relevant secondary antibodies (either AlexaFluor 647 Goat anti-Mouse IgG (H+L) (Invitrogen A21235/lot 1915807) or AlexaFluor 647 Goat anti-Rat IgG (H+L) (Invitrogen A21247/lot 1921562) were added for 30 minutes at 4° C. Cells were again washed with PBS two times, resuspended in CB and analyzed in either the Sony ID7000 Spectral Cell analyzer (Sony) or the GALLIOS Flow Cytometer (Beckman-Coulter) was used. EC₅₀ was calculated using the Sigmoidal 4PL equation of the GraphPad Prism-9 software.

[4] = molecular target: T1, human PD-L2 on CHO-K1 cells of the …; assay: cell-based or functional assay; remark: listed apart in the source

Row | EC50 (PD-1/PD-L2 blockade reporter assay, luminescence) [1] [nM] | Kd [2] [nM] | Relative KD (KD of variant / KD of VH0/VK0) [2] | koff [2] [s⁻¹] | kon [2] [M⁻¹ s⁻¹] | EC50 [3] [nM] | EC50 (PD-1/PD-L2 blockade reporter assay, luminescence) [4] [nM] | Binder
1 | 0.64 | 0.0358 | 1 | 9.72e-05 | 2.72e+06 | 0.16 |  | B1
2 |  | 0.0596 | 1.66 | 0.000129 |  |  |  | B2
3 |  | 0.0551 | 1.54 | 0.000119 |  |  |  | B3
4 |  | 0.267 | 7.46 | 0.000414 |  |  |  | B4
5 |  | 0.287 | 8.02 | 0.000466 |  |  |  | B5
6 |  | 0.0475 | 1.33 | 0.00011 |  |  |  | B6
7 |  | 0.0606 | 1.69 | 0.000128 |  |  |  | B7
8 |  | 0.0499 | 1.39 | 0.000113 |  |  |  | B8
9 | 0.6 | 0.0523 | 1.46 | 0.000118 |  |  |  | B9
10 |  | 0.0586 | 1.64 | 0.000125 |  |  |  | B10
11 |  | 0.0555 | 1.55 | 0.000122 |  |  |  | B11
12 |  | 0.053 | 1.48 | 0.00012 |  |  |  | B12
13 | 0.82 | 0.0529 | 1.48 | 0.000121 |  |  |  | B13
14 |  | 0.0604 | 1.69 | 0.000132 |  |  |  | B14
15 |  | 0.244 | 6.82 | 0.000388 |  |  |  | B15
16 | 0.62 | 0.262 | 7.32 | 0.000444 |  |  | 1.11 | B16
17 |  | 0.222 | 6.2 | 0.000344 |  |  |  | B17
18 |  | 0.223 | 6.23 | 0.000365 |  |  |  | B18
19 | 0.64 | 0.0588 | 1.64 | 0.000128 |  |  |  | B19
20 |  | 0.0487 | 1.36 | 0.000116 |  |  |  | B20
21 |  | 0.314 | 8.77 | 0.000497 |  |  |  | B21
22 |  | 0.0379 | 1.06 | 9.88e-05 |  |  |  | B22
23 |  | 0.0427 | 1.19 | 0.000109 |  |  |  | B23
